Test results: the supplement of paper PMC12764529
± gives the half width of the 95% confidence interval.

Columns and labels:
[1] = folding stability dG unfold from chymotrypsin proteolysis; higher = more stable
Outline: (§1)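 Only designs with AlphaFold2 dimer inter-PAE above 15 were retained; each was a mini-protein under 80 residues with no cysteine, in a PA-tagged cDNA display construct. After digestion with trypsin and chymotrypsin and sequencing, K50 was inferred by Bayesian fitting of counts, and unfolding free energy was derived per protease or combined against a sequence-predicted unfolded-state K50 and a shared folded-state K50.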

[2] = folding stability dG unfold from trypsin proteolysis; higher = more stable
Outline: as §1

[3] = folding stability dG unfold (combined trypsin and chymotrypsin); higher = more stable
Outline: as §1

Row | Sequence | folding stability dG unfold [1] [kcal/mol] | folding stability dG unfold [2] [kcal/mol] | folding stability dG unfold [3] [kcal/mol]
1 | SMAKVTGYPDIFLVTIYKDGEEKTIPVNFEELVELLKKGVKKVEFTTDNPEFAEKFYKLVKSLGVPVNLKSA [r9_810_TrMRF] | 2.7 ± 0.04 | 1.44 ± 0.016 | 2.33 ± 0.044
2 | SAGGSAGGSKLGVFEVGGKRYAVKVTDKNGKELTLAIPPELLKKLPKNLKVEVKEVKPGEPIPSAGGSAGGS [r12_419_TrMRF] | 0.738 ± 0.23 | 0.218 ± 0.16 | 0.635 ± 0.15
3 | SAGGEVLVIELSLEELKNLKPNQTVKIKLPDGSELEVRVEEVDGRLYLFVRNKENPEEVELIEEITIESAGG [r13_745_TrROS_Hall] | 3.48 ± 0.049 | 2.79 ± 0.062 | 3.3 ± 0.065
4 | SAGGVVTFLPGNLIKTTYFDPEKGTRTETLYYVPPDGTTTKLKTTVTPIPPTPLERPFFFGPDDVPVLSAGG [r13_646_JUSTAS] | 0.306 ± 0.21 | 0.517 ± 0.059 | 0.474 ± 0.15
5 | SAGGSAMYYRFEIPRPDGVIEEIWIKMTPEEAKALVEALEADPNVASVKVEAITEEEARKLGIFENSAGGSA [r15_39_JUSTAS] | 4.46 ± 0.12 | 4.17 ± 0.28 | 4.34 ± 0.18
6 | SAGGEKITIEVDGKKVTITKNEDGTITITIEHNGKVIKTITLPKNLEKITELTLTFNGKTYTITIEPSAGGS [r16_452_TrROS_Hall] | 5.013 ± 0.048 | 3.9 ± 0.13 | 4.97 ± 0.11
7 | SAGGSAGGSAGGSAPYPNTVVPTPLLSSVVTETTVEFFPDGTVVPVSTTTTVVLVYRLLSAGGSAGGSAGGS [r4_288_JUSTAS] | 4.75 ± 0.12 | 3.54 ± 0.13 | 4.53 ± 0.15
8 | SAGGSAGGSAGGWIFIIEIDPDNGEIKINWPNGNSIKIPPEDLDNMPIEIKPIPPPPNDKSAGGSAGGSAGG [r7_99_TrROS] | 1.88 ± 0.097 | 1.83 ± 0.19 | 1.87 ± 0.28
9 | SAGGSAGGSAFVWNPDTGTFIQLDPNDGTIEVFEIENDNDGKLEPIGTVEVDPDDPDKGTITSAGGSAGGSA [r18_448_TrROS] | 1.23 ± 0.069 | 1.75 ± 0.13 | 1.5 ± 0.1
10 | SAGPKNREIKVRIQFNGNWVEYKMPDNDLKELVKNGGLQIAGVDPEKDEIMIQIPVPPPKPDPEDGKPKSAG [r5_868_TrROS] | 1.23 ± 0.083 | -0.0867 ± 0.19 | 0.773 ± 0.15
11 | SAGGSAGGSAGKTYTFRVRIVDEETGEEKEIEVTAKSEEEAKKAAEELKKKYPNLKVELESAGGSAGGSAGG [r11_233_TrROS_Hall] | 3.24 ± 0.036 | 2.98 ± 0.13 | 3.22 ± 0.14
12 | SAGGSAKVKIEFFQMPPGGNPRDMQKKAQDKGDIFIIVNKPGWMIVITADDPEDANTIAKEILEEFSAGGSA [r15_546_TrROS] | 1.08 ± 0.11 | 0.735 ± 0.086 | 0.954 ± 0.092
13 | SAGGSEDRYLVHVLVRFPDELRELYLEARSPEEVERSVRRAIEELYPERLEDVEVVVFARPVSEPLSAGGSA [r2_111_TrMRF] | 1.91 ± 0.081 | 2.38 ± 0.038 | 2.14 ± 0.061
14 | SAGGKIPKNAKILEVEFDPETGYIRIKVEFYDKNGKLIKKAEITIPILPVPPLSPEDIEKLLKALASSAGGS [r16_697_TrMRF] | 3.85 ± 0.17 | 3.15 ± 0.12 | 3.59 ± 0.17
15 | SAGGSAMYKVEVTATTSSSSTPYPLEMDFETEEEAKERVKKYLEEKYGDPISSIETKIEPVEPGLESAGGSA [r15_670_JUSTAS] | -0.645 ± 0.57 | -0.314 ± 0.21 | -0.234 ± 0.36
16 | SAGGSAGGSAGGSMPIVRIEVKHPDQKHTFFIPPDMPLEDIADELASQYPNVEVKIEPVSAGGSAGGSAGGS [r4_155_TrROS] | 1.33 ± 0.11 | 0.355 ± 0.091 | 0.935 ± 0.21
17 | SAGGSAGGSKKKYTVEELLKKLKPGDIALVKINGKWREVSVEELKKLPPGAEVEVEVFKLKPPSAGGSAGGS [r12_501_TrROS_Hall] | 3.51 ± 0.072 | 2.84 ± 0.11 | 3.34 ± 0.16
18 | SAGGSEPPKIKKIKDINVKHERHNDRPYWEVKIRIKLKNGNTAEIDIEMPGMPPEEAREQIKDILKSAGGSA [r2_26_TrROS] | 0.872 ± 0.089 | 0.391 ± 0.15 | 0.938 ± 0.36
19 | SAGFVMIKIELENPGNGKERELSIIIPYKSQEDARHIAEEIARELAKNGWKIKKIEVMVMPIPPPPDDPSAG [r5_660_TrROS] | 5.29 ± 0.16 | 3.95 ± 0.12 | 5.1 ± 0.24
20 | SKKVTIMIMIRRRDPEDGKYRPIPPEFILEMVRRARKKGKKVKITFMNPDNPWAKRLAKRAKEEGIKIEWSA [r9_468_TrROS] | 2.1 ± 0.14 | 2 ± 0.05 | 2.1 ± 0.11
21 | SAGGKTVTTPEQILELIKENPGKTYTITITVPKENQKKVEELKKALEEAGLTVEENENGTLTVTIKPSAGGS [r16_335_TrROS_Hall] | 3.89 ± 0.14 | 2.2 ± 0.17 | 3.42 ± 0.28

Row | Sequence | folding stability dG unfold [1] [kcal/mol] | folding stability dG unfold [2] [kcal/mol] | folding stability dG unfold [3] [kcal/mol]
22 | SANMDMPPGFKPIARDDDITIWQNPNPVYIMIRGPDGKHKMLPFNPGDPEKIKDLIREFADDGITDIMISAG [r14_12_TrROS] | 0.657 ± 0.12 | 1.43 ± 0.016 | 1.09 ± 0.15
23 | SAGGSAGGSAEDVVLKVKIEIPSSDGTLLEIDEAIYNPKPGTLHFKIRSPDGSEFEIEIPLDSAGGSAGGSA [r18_370_TrMRF] | 1.44 ± 0.13 | 0.725 ± 0.033 | 1.12 ± 0.082
24 | SPGMEPIREWELKLPDPDGEDKDLEVEMYRMPEGNYYVDISIPNGKKIPFPMPPDEPITPDDIRNFIKKFSA [r9_616_TrROS] | 0.613 ± 0.23 | 0.133 ± 0.26 | 0.394 ± 0.28
25 | SAGGPPIRIKVELWDPNGKEYTHTFPFGEPLDQILDNASKQFGLPLRVEDIEYDPDGMITITIRIPDSAGGS [r8_285_TrROS] | 1.77 ± 0.027 | 1.75 ± 0.036 | 1.8 ± 0.1
26 | SAGGSAGGSKTLIIKIKVEGLSEEEIAEELAKKLQEETGLKIKSVKIEKKDGYLYIEVEVEEPSAGGSAGGS [r12_781_TrROS_Hall] | 3.96 ± 0.17 | 3.86 ± 0.4 | 4.15 ± 0.21
27 | SAGGSAGGSAGGTKTYTITNEDGSKITIEEVDGKYVITYPNGEKKEIEGMTLEELLKALSAGGSAGGSAGGS [r10_569_TrROS_Hall] | 4.26 ± 0.21 | 4.22 ± 0.58 | 4.35 ± 0.18
28 | SAGGMKPGAPVEIEFPIPGIPPGRRFRIMIHYPNGKHVEAEYTDNTIKIEIPVPDGDNIHHIYIYFYSAGGS [r16_179_TrROS] | 4.33 ± 0.11 | 3.27 ± 0.084 | 3.86 ± 0.12
29 | SAGGSAGGSAGGGSVTIEIEFEAKPGEKFTVTIKGFKKVEITEIYPFDGKVRIKVKVTPESAGGSAGGSAGG [r7_292_TrMRF] | 3.88 ± 0.13 | 3.18 ± 0.13 | 3.67 ± 0.13
30 | SANTRSIPFPGSADDIVDEIKNLIDANPDVKIRIQPMDGEEYEIDIEGIEKIKVERMPDGWYMITVELPSAG [r14_807_TrROS] | 1.63 ± 0.13 | 0.283 ± 0.33 | 1.16 ± 0.21
31 | SAGGIKEFADTLQDHGGTVTVEPVNNGSLKVSIQHRDPEDGRMYRMEIEIPPENNKLEIDDWEPYPNSAGGS [r16_613_TrROS] | 0.31 ± 0.27 | 0.071 ± 0.15 | 0.0987 ± 0.21
32 | SAGGSAGGSAGKVTLVFKTKEDALNAIKELAEKEGLKVKIVKIEELPNGLIKITVEIEKPSAGGSAGGSAGG [r11_304_TrROS_Hall] | 4.2 ± 0.095 | 3.99 ± 0.25 | 4.22 ± 0.17
33 | SAKYKIIEAKPGKNVVTITVEYTLPNGEKLTKPIPINAINPVIVEVSEDSITIYDPNNGKLITFPAEKLSAG [r14_947_TrMRF] | 2.87 ± 0.037 | 2.1 ± 0.12 | 2.49 ± 0.12
34 | SADLAAELEEGGFVVTITETVVSVTPQTLEKDSFVVEKDVVTTITVTPPPVAPPPPDPANLRDAAGAPVSAG [r14_569_JUSTAS] | 1.01 ± 0.023 | -0.0411 ± 0.041 | 0.798 ± 0.084
35 | SAGGMVKTITKPMPLEELEKVYEEAKEAIEAGYEVIFTYPLPDGTTITIKTDYETKKIVEIKTSKPVSSAGG [r13_873_JUSTAS] | 1.09 ± 0.059 | -0.345 ± 0.67 | 0.687 ± 0.28
36 | SAGGSAGGMKTVEIEVTVKTPDGKEVKIKKARIEYDKETKTFHLYFENEETGEWYEVDEIKLKDSAGGSAGG [r6_329_TrROS_Hall] | 2.69 ± 0.18 | 1.96 ± 0.085 | 2.71 ± 0.2
37 | SAGGPKKAIEILKKEGFTIKSVDPKKKKVIATPKETDIPIEIYVIGDDKVLIVEYLKGKPIIKEFKKSAGGS [r16_197_TrMRF] | 0.741 ± 0.12 | 0.834 ± 0.04 | 0.829 ± 0.15
38 | SAGGSAMIEIEIVKPNASPEEAEKLEKEVREKLLEEGVPEEVVKEVNIKVIVKPVKKDKNNNPILESAGGSA [r15_684_JUSTAS] | 0.977 ± 0.19 | -0.215 ± 0.15 | 0.811 ± 0.2
39 | SAGGSAGGSTLKLEIVNEDGYKVEIEAELELVEKDGKLVLKLKVKIKVEPAKEVKEVKVELPESAGGSAGGS [r12_581_TrROS_Hall] | 3.87 ± 0.2 | 1.95 ± 0.16 | 3.45 ± 0.44
40 | SGMDTVTPTTSTTQYFVEPNPEPVLSISTTTDTTTDPANPGVVTVTTTTTITDPRTGTTTTTPTTTTVPASA [r9_342_JUSTAS] | -0.564 ± 0.14 | 0.142 ± 0.019 | -0.146 ± 0.18
41 | SAGGSAGGKTIEITIKLEDGKELKIKIDSPEELDKITSVELIGPGKIKITVNGKTIEITIKPKPSAGGSAGG [r6_206_TrROS_Hall] | 2.77 ± 0.072 | 3.45 ± 0.14 | 3.2 ± 0.16
42 | SAMKKIKLSPEALELAKKLPPDYKVTEIKVEKLEDGTVVVTLTVEKTNENGEKEKVELTIVLDKDGKPVSAG [r14_420_TrROS_Hall] | 0.0295 ± 0.46 | 0.619 ± 0.065 | 0.757 ± 0.37
